# According to patent US6759384:
# No end group written: not given here.
# T1: human factor Xa (Enzyme Research Laboratories, Inc.) (human), P00742
# T1 chain 1: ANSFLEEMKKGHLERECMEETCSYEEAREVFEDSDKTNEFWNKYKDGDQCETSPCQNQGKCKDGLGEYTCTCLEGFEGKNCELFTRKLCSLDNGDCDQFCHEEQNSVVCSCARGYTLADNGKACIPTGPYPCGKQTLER
# T1 chain 2: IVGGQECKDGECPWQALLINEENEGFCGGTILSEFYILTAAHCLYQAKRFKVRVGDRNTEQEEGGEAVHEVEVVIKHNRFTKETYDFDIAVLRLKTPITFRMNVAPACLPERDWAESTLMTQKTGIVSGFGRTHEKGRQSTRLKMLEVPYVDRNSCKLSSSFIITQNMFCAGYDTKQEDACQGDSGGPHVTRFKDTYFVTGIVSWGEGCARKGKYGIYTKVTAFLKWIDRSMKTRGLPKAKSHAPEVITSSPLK
# Target: T1, human factor Xa (Enzyme Research …)
# Assay: chromogenic FXa inhibition
row,Ki [µM],Binder
1,< 100,WIREK-NH2 [W-I-R-E-K-NH2]
2,< 100,GYIRL-NH2 [G-Y-I-R-L-NH2]
3,< 100,GYIRT-NH2 [G-Y-I-R-T-NH2]
4,< 100,GYIRK-NH2 [G-Y-I-R-K-NH2]

# Second part, the binder before the results:
row,Binder,Ki [µM]
1,GYIRI-NH2 [G-Y-I-R-I-NH2],< 100
2,GYIRG-NH2 [G-Y-I-R-G-NH2],< 100
3,GYIRH-NH2 [G-Y-I-R-H-NH2],< 100
4,Ac-GYIRL-NH2 [Ac-G-Y-I-R-L-NH2],< 100
5,GYIRG (modifications not checked) [G-Y-I-R-G],< 100
6,Ac-GYIRG-NH2 [Ac-G-Y-I-R-G-NH2],< 100
7,EYIRK-NH2 [E-Y-I-R-K-NH2],< 100
